Reference: patent US20060171941A1

Assays:
[1] = target: anti-V region antibodies to CC49 in the serum of patient one; assay: SPR competition for patient one serum anti-V region Abs
[2] = target: bovine submaxillary mucin (TAG-72 positive) (bovine); assay: competition RIA against 125I-mCC49 on BSM; relative affinity constant, modified Scatchard
[3] = target: anti-V region antibodies to CC49 in the serum of patient two; assay: SPR competition, soluble competitor Ab against immobilized HuCC49 for patient two serum anti-V region Abs
[4] = target: tumor-associated glycoprotein-72 on the cell surface of Jurkat cells; assay: flow cytometry, 0.5 ug Ab on Jurkat cells expressing TAG-72
[5] = target: anti-V region antibodies to CC49 in the serum of patient one; assay: SPR competition, soluble competitor Ab against immobilized HuCC49 for patient one serum anti-V region Abs

Binder	concentration required for 20% inhibition [1] [nM]	percent inhibition at 1000 nM [1] [%]	Ka [2] [M⁻¹]	IC50 [3] [nM]	% of gated cells [4] [%]	mean fluorescence intensity [4]	IC50 [5] [nM]
HuCC49V10 (antibody, V domains shown) VH: QVQLVQSGAEVVKPGASVKISCKASGYTFTDHAIHWVKQNPGQRLEWIGYFSPGNDDFKYSQKFQGKATLTADTSASTAYVELSSLRSEDTAVYFCTRSLNMAYWGQGTLVTVSS VL: DIVMSQSPDSLAVSLGERVTLNCKSSQSVLYSSNSKNYLAWYQQKPGQSPKLLIYWASTRESGVPDRFSGSGSGTDFTLTISSVQAEDVAVYYCQQYYSYPLSFGAGTKLELK	80	< 30	5.9e+07	7.7	25.8	62.9	> 1000
humanized CC49 (CDR-grafted) (antibody, V domains shown) VH: QVQLVQSGAEVVKPGASVKISCKASGYTFTDHAIHWVKQNPGQRLEWIGYFSPGNDDFKYNERFKGKATLTADTSASTAYVELSSLRSEDTAVYFCTRSLNMAYWGQGTLVTVSS VL: DIVMSQSPDSLAVSLGERVTLNCKSSQSLLYSGNQKNYLAWYQQKPGQSPKLLIYWASARESGVPDRFSGSGSGTDFTLTISSVQAEDVAVYYCQQYYSYPLTFGAGTKLELK	2	–	1.16e+08	2.2	–	–	6
